{"source": "paper PMC11964938", "target": "purified, recombinant myristoylated HIV-1 MA protein (HIV-1 pNL4-3)", "data": [{"substance": "HIV-1 SP2 added to MA on lipid monolayers (peptide)", "values": [{"measurement": "share of sub-images that contributed to mature-like MA lattice classes on lipid monolayers in the presence of SP2 (7% mature-like and 7% immature-like without SP2; no immature-like classes with SP2)", "result": 47, "unit": "%"}]}]}
